Source: patent publication US20080138349A1

Experiments:
[1] = target: FcγRIIIA 158F (CD16A F158), soluble monomer (human) (UniProt P08637); assay: method not given
[2] = target: FcγRIIA 131H (CD32A H131), soluble dimeric Fc fusion (human) (UniProt P12318); assay: method not given
[3] = target: FcγRIIIA 158V (CD16A V158), soluble monomer (human) (UniProt P08637); assay: method not given
[4] = target: FcγRIIA 131R (CD32A R131), soluble dimeric Fc fusion (human) (UniProt P12318); assay: method not given
Sequence of FcγRIIA 131R (CD32A R131), soluble dimeric Fc fusion (human) (P12318 34-217 H167R): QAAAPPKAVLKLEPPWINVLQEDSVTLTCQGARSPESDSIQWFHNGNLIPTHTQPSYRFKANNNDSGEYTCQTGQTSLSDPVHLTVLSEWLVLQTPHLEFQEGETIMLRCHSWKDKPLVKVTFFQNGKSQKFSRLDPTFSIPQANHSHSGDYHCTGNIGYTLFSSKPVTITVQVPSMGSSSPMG

[5] = target: FcγRIIB (CD32B), soluble dimeric Fc fusion (human) (UniProt P31994); assay: method not given
Sequence of FcγRIIB (CD32B), soluble dimeric Fc fusion (human) (P31994 43-217): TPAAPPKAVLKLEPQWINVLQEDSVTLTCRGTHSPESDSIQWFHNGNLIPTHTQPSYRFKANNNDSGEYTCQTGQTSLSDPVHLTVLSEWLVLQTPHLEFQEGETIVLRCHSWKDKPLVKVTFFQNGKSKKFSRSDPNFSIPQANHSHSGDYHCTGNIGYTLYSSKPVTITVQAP

[6] = target: FcγRIIIA 158F (CD16A F158), soluble monomer (human) (UniProt P08637); assay: value on CD16A 158F over value on CD32B
[7] = target: FcγRIIIA 158V (CD16A V158), soluble monomer (human) (UniProt P08637); assay: value on CD16A 158V over value on CD32B
[8] = target: FcγRIIA 131H (CD32A H131), soluble dimeric Fc fusion (human) (UniProt P12318); assay: value on CD32A 131H over value on CD32B
[9] = target: FcγRIIIA 158F (CD16A F158), soluble monomer (human) (UniProt P08637); assay: binding to human FcRs; method not given
[10] = target: FcγRIIA 131H (CD32A H131), soluble dimeric Fc fusion (human) (UniProt P12318); assay: binding to human FcRs; method not given
[11] = target: FcγRIIB (CD32B), soluble dimeric Fc fusion (human) (UniProt P31994); assay: binding to human FcRs; method not given
[12] = target: FcγRIIIA 158V (CD16A V158), soluble monomer (human) (UniProt P08637); assay: binding to human FcRs; method not given
[13] = target: FcγRIIIA 158F (CD16A F158), soluble monomer (human) (UniProt P08637); assay: Biacore SPR; value on CD16A over value on CD32B
[14] = target: FcγRIIIA 158V (CD16A V158), soluble monomer (human) (UniProt P08637); assay: Biacore SPR; value on CD16A over value on CD32B
[15] = target: FcγRIIIA 158F (CD16A F158), soluble monomer (human) (UniProt P08637); assay: Biacore SPR
[16] = target: FcγRIIIA 158V (CD16A V158), soluble monomer (human) (UniProt P08637); assay: Biacore SPR
[17] = target: FcγRIIB (CD32B), soluble dimeric Fc fusion (human) (UniProt P31994); assay: Biacore SPR

Sequence of FcγRIIA 131H (CD32A H131), soluble dimeric Fc fusion (human) (P12318 34-217): as the sequence (P12318 34-217 H167R) above, with R134H counted along it
Sequence of FcγRIIIA 158F (CD16A F158), soluble monomer (human) (P08637 17-208): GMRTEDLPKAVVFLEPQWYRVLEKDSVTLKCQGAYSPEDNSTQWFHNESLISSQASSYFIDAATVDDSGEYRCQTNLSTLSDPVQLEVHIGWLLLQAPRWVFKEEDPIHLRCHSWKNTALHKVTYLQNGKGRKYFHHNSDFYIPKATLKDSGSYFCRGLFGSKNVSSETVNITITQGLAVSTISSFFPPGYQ
Sequence of FcγRIIIA 158V (CD16A V158), soluble monomer (human) (P08637 17-208 F176V): as the sequence (P08637 17-208) above, with F160V counted along it

Row | fold change relative to wild-type affinity [10] [fold] | fold change relative to wild-type affinity [11] [fold] | Ratio of Affinities CD16A F158/CD32B [13] | Ratio of Affinities CD16A V158/CD32B [14] | Koff WT/Koff mutant [15] | Koff WT/Koff mutant [16] | Koff WT/Koff mutant [17] | Substance | also measured
1 | – | – | – | – | – | – | – | Immunoglobulin with variant Fc region L234F, F243L, R292P, Y300L (antibody) | binding relative to wt (wt = 1) [1]: 1.6; binding relative to wt (wt = 1) [2]: 0.3; binding relative to wt (wt = 1) [3]: 1.7; binding relative to wt (wt = 1) [4]: 0.2; binding relative to wt (wt = 1) [5]: 0.2; Ratio of Affinities 16A-158F:32B [6]: 8; Ratio of Affinities 16A-158V:32B [7]: 8.5; Ratio of Affinities 32A-131H:32B [8]: 1.5
2 | -0.5 | -2.7 | – | – | – | – | – | Immunoglobulin with variant Fc region R292P (antibody) | fold change relative to wild-type affinity [9]: 0.6 fold
3 | 0.4 | -1.6 | – | – | – | – | – | Immunoglobulin with variant Fc region F243L R292P P396L (antibody) | fold change relative to wild-type affinity [9]: 2.4 fold; fold change relative to wild-type affinity [12]: 5.3 fold
4 | -0.3 | -1.6 | – | – | – | – | – | Immunoglobulin with variant Fc region R292P V305I F243L P396L (antibody) | fold change relative to wild-type affinity [12]: -3 fold
5 | 0 | -0.7 | 7.19 | 20.9 | 2.3 | 6.69 | 0.32 | Immunoglobulin with variant Fc region F243L R292P Y300L (antibody) | fold change relative to wild-type affinity [9]: 3.6 fold; fold change relative to wild-type affinity [12]: 6.4 fold
6 | – | – | 0.72 | 0.67 | 1.6 | 1.49 | 2.22 | Immunoglobulin with variant Fc region P396L F243L (antibody) | –
7 | – | – | 2.07 | 2.01 | 1.9 | 1.85 | 0.92 | Immunoglobulin with variant Fc region R292P V305I P396L (antibody) | –
8 | – | – | – | – | – | – | – | Immunoglobulin with variant Fc region L235V, F243L, R292P, Y300L, P396L (antibody) | binding relative to wt (wt = 1) [1]: 4.8; binding relative to wt (wt = 1) [2]: 1.3; binding relative to wt (wt = 1) [3]: 6.1; binding relative to wt (wt = 1) [4]: 0.4; binding relative to wt (wt = 1) [5]: 0.4; Ratio of Affinities 16A-158F:32B [6]: 12; Ratio of Affinities 16A-158V:32B [7]: 15; Ratio of Affinities 32A-131H:32B [8]: 3.3
9 | – | – | 6.7 | 7.5 | 1.34 | 1.5 | 0.2 | Immunoglobulin with variant Fc region G316D R416G D270E F243L (antibody) | –
10 | 0.6 | 1.6 | 0.67 | 0.49 | 1.73 | 1.27 | 2.58 | Immunoglobulin with variant Fc region P396L (antibody) | fold change relative to wild-type affinity [9]: 0.7 fold; fold change relative to wild-type affinity [12]: 0.3 fold
11 | – | – | 5.25 | 9.4 | 5.62 | 10.1 | 1.07 | Immunoglobulin with variant Fc region R292P F243L P396L Y300L (antibody) | –
12 | – | – | 0.77 | 0.63 | 1.81 | 1.49 | 2.35 | Immunoglobulin with variant Fc region K392T P396L (antibody) | –
13 | – | – | 0.63 | 0.49 | 1.39 | 1.09 | 2.22 | Immunoglobulin with variant Fc region R255L P396L (antibody) | –
14 | 1.9 | 0.2 | 0.99 | – | – | 1.01 | 1.18 | Immunoglobulin with variant Fc region Y300L (antibody) | fold change relative to wild-type affinity [9]: 0.2 fold; fold change relative to wild-type affinity [12]: 0 fold
15 | 0 | 0.74 | – | – | – | – | – | Control immunoglobulin with variant Fc region S239D I332E A330L (XmAb) (antibody) | fold change relative to wild-type affinity [9]: 8.1 fold; fold change relative to wild-type affinity [12]: 13.9 fold
16 | – | – | 1.9 | 1.54 | 1.65 | 1.34 | 0.87 | Immunoglobulin with variant Fc region R255L P396L D270E (antibody) | –
17 | – | – | – | – | – | – | – | Immunoglobulin with variant Fc region L235I, F243L, R292P, Y300L (antibody) | binding relative to wt (wt = 1) [1]: 3.3; binding relative to wt (wt = 1) [2]: 0.5; binding relative to wt (wt = 1) [3]: 2.6; binding relative to wt (wt = 1) [4]: 0.1; binding relative to wt (wt = 1) [5]: 0.2; Ratio of Affinities 16A-158F:32B [6]: 16.5; Ratio of Affinities 16A-158V:32B [7]: 13; Ratio of Affinities 32A-131H:32B [8]: 2.5
18 | – | – | – | – | – | – | – | Immunoglobulin with variant Fc region L235Q, F243L, R292P, Y300L (antibody) | binding relative to wt (wt = 1) [2]: 0.2; binding relative to wt (wt = 1) [3]: 1.8
19 | -3.3 | -2.5 | – | – | – | – | – | Control immunoglobulin with variant Fc region E333A K334A S298A (AAA) (antibody) | fold change relative to wild-type affinity [9]: 0.1 fold; fold change relative to wild-type affinity [12]: 0.6 fold
20 | – | – | 4.32 | 4.61 | 1.64 | 1.75 | 0.38 | Immunoglobulin with variant Fc region R255L P396L D270E F243L (antibody) | –
21 | – | – | 4.42 | 5.62 | 1.15 | 1.46 | 0.26 | Immunoglobulin with variant Fc region Q419H P396L D270E F243L (antibody) | –
22 | – | – | 0.88 | 1.14 | 0.94 | 1.22 | 1.07 | Immunoglobulin with variant Fc region G316D R416G D270E P396L (antibody) | –
23 | – | – | 3.79 | 3.21 | 1.48 | 1.25 | 0.39 | Immunoglobulin with variant Fc region D270E (antibody) | –
24 | – | – | 4.24 | 3.26 | 2.46 | 1.89 | 0.58 | Immunoglobulin with variant Fc region P247L N421K D270E (antibody) | –
25 | – | – | 1.85 | 1.55 | 1.65 | 1.38 | 0.89 | Immunoglobulin with variant Fc region P396L D270E (antibody) | –
